Data: paper PMC7367873, “Dissecting the sequence determinants for dephosphorylation by the catalytic subunits of phosphatases PP1 and PP2A” (Nature Communications, 2020)

Key:
[1] = test system: GFP-14-3-3β and its binding proteins; assay: GFP-14-3-3β co-IP with LC-MS/MS label-free quantification, untreated versus PP1c-treated; parameters: species or system human; settings: pairwise comparison PP1 vs untreated, 3 replicates each
GFP-14-3-3β = GFP-14-3-3β co-IP with LC-MS/MS, untreated GFP-14-3-3β versus GFP control (14-3-3 interactome); assay type: binding, human; settings: 3 replicates each
[2] = student's t-test, LC-MS/MS label-free quantification
[3] = pairwise comparison untreated GFP-14-3-3β vs GFP, student's t-test, LC-MS/MS label-free quantification
[4] = log2 difference, label-free quantification
[5] = log2 difference, pairwise comparison untreated vs GFP, label-free quantification

B1: FGD6 (protein, UniProt Q6ZV73 1-1430, looked up)
FYVE, RhoGEF and PH …: MTSAAEIKKPPVAPKPKFVVANNKPAPPPIAPKPDIVISSVPQSTKKMKPAIAPKPKVLKTSPVREIGQSPSRKIMLNLEGHKQELAESTDNFNCKYEGNQSNDYISPMCSCSSECIHKLGHRENLCVKQLVLEPLEMNENLENSKIDETLTIKTRSKCDLYGEKAKNQGGVVLKASVLEEELKDALIHQMPPFISAQKHRPTDSPEMNGGCNSNGQFRIEFADLSPSPSSFEKVPDHHSCHLQLPSDECEHFETCQDDSEKSNNCFQSSELEALENGKRSTLISSDGVSKKSEVKDLGPLEIHLVPYTPKFPTPKPRKTRTARLLRQKCVDTPSESTEEPGNSDSSSSCLTENSLKINKISVLHQNVLCKQEQVDKMKLGNKSELNMESNSDAQDLVNSQKAMCNETTSFEKMAPSFDKDSNLSSDSTTVDGSSMSLAVDEGTGFIRCTVSMSLPKQLKLTCNEHLQSGRNLGVSAPQMQKESVIKEENSLRIVPKKPQRHSLPATGVLKKAASEELLEKSSYPSSEEKSSEKSLERNHLQHLCAQNRGVSSSFDMPKRASEKPVWKLPHPILPFSGNPEFLKSVTVSSNSEPSTALTKPRAKSLSAMDVEKCTKPCKDSTKKNSFKKLLSMKLSICFMKSDFQKFWSKSSQLGDTTTGHLSSGEQKGIESDWQGLLVGEEKRSKPIKAYSTENYSLESQKKRKKSRGQTSAANGLRAESLDDQMLSRESSSQAPYKSVTSLCAPEYENIRHYEEIPEYENLPFIMAIRKTQELEWQNSSSMEDADANVYEVEEPYEAPDGQLQLGPRHQHSSSGASQEEQNDLGLGDLPSDEEEIINSSDEDDVSSESSKGEPDPLEDKQDEDNGMKSKVHHIAKEIMSSEKVFVDVLKLLHIDFRDAVAHASRQLGKPVIEDRILNQILYYLPQLYELNRDLLKELEERMLHWTEQQRIADIFVKKGPYLKMYSTYIKEFDKNIALLDEQCKKNPGFAAVVREFEMSPRCANLALKHYLLKPVQRIPQYRLLLTDYLKNLIEDAGDYRDTQDALAVVIEVANHANDTMKQGDNFQKLMQIQYSLNGHHEIVQPGRVFLKEGILMKLSRKVMQPRMFFLFNDALLYTTPVQSGMYKLNNMLSLAGMKVRKPTQEAYQNELKIESVERSFILSASSATERDEWLEAISRAIEEYAKKRITFCPSRSLDEADSENKEEVSPLGSKAPIWIPDTRATMCMICTSEFTLTWRRHHCRACGKIVCQACSSNKYGLDYLKNQPARVCEHCFQELQKLDHQHSPRIGSPGNHKSPSSALSSVLHSIPSGRKQKKIPAALKEVSANTEDSSMSGYLYRSKGNKKPWKHFWFVIKNKVLYTYAASEDVAALESQPLLGFTVIQVKDENSESKVFQLLHKNMLFYVFKAEDAHSAQKWIEAFQEGTIL
B1 was tested, and the “Difference (log2), PP1 vs untreated” value [1, 2] was -2.212 log2 and the “Difference (log2), untreated vs GFP” value (GFP-14-3-3β; [3]) was 2.545 log2.

B2: RNPC3 (protein, UniProt Q96LT9 1-517, looked up)
RNA-binding region-containing …: MAAPEQPLAISRGCTSSSSLSPPRGDRTLLVRHLPAELTAEEKEDLLKYFGAQSVRVLSDKGRLKHTAFATFPNEKAAIKALTRLHQLKLLGHTLVVEFAKEQDRVHSPCPTSGSEKKKRSDDPVEDDKEKKELGYLTVENGIAPNHGLTFPLNSCLKYMYPPPSSTILANIVNALASVPKFYVQVLHLMNKMNLPTPFGPITARPPMYEDYMPLHAPLPPTSPQPPEEPPLPDEDEELSSEESEYESTDDEDRQRMNKLMELANLQPKRPKTIKQRHVRKKRKIKDMLNTPLCPSHSSLHPVLLPSDVFDQPQPVGNKRIEFHISTDMPAAFKKDLEKEQNCEEKNHDLPATEVDASNIGFGKIFPKPNLDITEEIKEDSDEMPSECISRRELEKGRISREEMETLSVFRSYEPGEPNCRIYVKNLAKHVQEKDLKYIFGRYVDFSSETQRIMFDIRLMKEGRMKGQAFIGLPNEKAAAKALKEANGYVLFGKPMVVQFARSARPKQDPKEGKRKC
With B2 the “Difference (log2), PP1 vs untreated” value [1, 4] was 5.4303 and the “Difference (log2), untreated vs GFP” value (GFP-14-3-3β; [5]) was -2.187.

B3: DDX1 (protein, UniProt Q92499 1-740, looked up)
ATP-dependent RNA helicase …: MAAFSEMGVMPEIAQAVEEMDWLLPTDIQAESIPLILGGGDVLMAAETGSGKTGAFSIPVIQIVYETLKDQQEGKKGKTTIKTGASVLNKWQMNPYDRGSAFAIGSDGLCCQSREVKEWHGCRATKGLMKGKHYYEVSCHDQGLCRVGWSTMQASLDLGTDKFGFGFGGTGKKSHNKQFDNYGEEFTMHDTIGCYLDIDKGHVKFSKNGKDLGLAFEIPPHMKNQALFPACVLKNAELKFNFGEEEFKFPPKDGFVALSKAPDGYIVKSQHSGNAQVTQTKFLPNAPKALIVEPSRELAEQTLNNIKQFKKYIDNPKLRELLIIGGVAARDQLSVLENGVDIVVGTPGRLDDLVSTGKLNLSQVRFLVLDEADGLLSQGYSDFINRMHNQIPQVTSDGKRLQVIVCSATLHSFDVKKLSEKIMHFPTWVDLKGEDSVPDTVHHVVVPVNPKTDRLWERLGKSHIRTDDVHAKDNTRPGANSPEMWSEAIKILKGEYAVRAIKEHKMDQAIIFCRTKIDCDNLEQYFIQQGGGPDKKGHQFSCVCLHGDRKPHERKQNLERFKKGDVRFLICTDVAARGIDIHGVPYVINVTLPDEKQNYVHRIGRVGRAERMGLAISLVATEKEKVWYHVCSSRGKGCYNTRLKEDGGCTIWYNEMQLLSEIEEHLNCTISQVEPDIKVPVDEFDGKVTYGQKRAAGGGSYKGHVDILAPTVQELAALEKEAQTSFLHLGYLPNQLFRTF
In the case of B3, the “Difference (log2), PP1 vs untreated” value [1, 4] is reported as 1.563 and the “Difference (log2), untreated vs GFP” value (GFP-14-3-3β; [5]) is reported as -0.009417.

B4: FOXK1 (protein, UniProt P85037 2-733, looked up)
Forkhead box protein K1: AEVGEDSGARALLALRSAPCSPVLCAAAAAAAFPAAAPPPAPAQPQPPPGPPPPPPPPLPPGAIAGAGSSGGSSGVSGDSAVAGAAPALVAAAAASVRQSPGPALARLEGREFEFLMRQPSVTIGRNSSQGSVDLSMGLSSFISRRHLQLSFQEPHFYLRCLGKNGVFVDGAFQRRGAPALQLPKQCTFRFPSTAIKIQFTSLYHKEEAPASPLRPLYPQISPLKIHIPEPDLRSMVSPVPSPTGTISVPNSCPASPRGAGSSSYRFVQNVTSDLQLAAEFAAKAASEQQADTSGGDSPKDESKPPFSYAQLIVQAISSAQDRQLTLSGIYAHITKHYPYYRTADKGWQNSIRHNLSLNRYFIKVPRSQEEPGKGSFWRIDPASEAKLVEQAFRKRRQRGVSCFRTPFGPLSSRSAPASPTHPGLMSPRSGGLQTPECLSREGSPIPHDPEFGSKLASVPEYRYSQSAPGSPVSAQPVIMAVPPRPSSLVAKPVAYMPASIVTSQQPAGHAIHVVQQAPTVTMVRVVTTSANSANGYILTSQGAAGGSHDAAGAAVLDLGSEARGLEEKPTIAFATIPAAGGVIQTVASQMAPGVPGHTVTILQPATPVTLGQHHLPVRAVTQNGKHAVPTNSLAGNAYALTSPLQLLATQASSSAPVVVTRVCEVGPKEPAAAVAATATTTPATATTASASASSTGEPEVKRSRVEEPSGAVTTPAGVIAAAGPQGPGTGE
With B4 the “Difference (log2), PP1 vs untreated” value [1, 2] was -2.312 log2 and the “Difference (log2), untreated vs GFP” value (GFP-14-3-3β; [3]) was 5.634 log2.
